Values quoted from earlier work as cited in publication PMC8223436.

Target: HER2 domain IV (Homo sapiens) (UniProt P04626)

- Kd: 0.56 nM
Substance: Trastuzumab
